Assays:
primary brown fat cells = test: Thermogenic gene expression in primary brown fat cells with adenoviral overexpression; format: cell-based, Mus musculus; settings: Slit2-C vs LacZ virus, day 7; FIG. 6B
Method: (§1) Inguinal and brown stromal-vascular fractions were obtained from 6 weeks old male or newborn mice (postnatal days 5-10) for white and brown fat cultures, respectively. Inguinal fat tissue was dissected and washed with PBS, minced and digested for 45 min at 37° C. in PBS containing 10 mM CaCl2), 2.4 U/ml dispase II (Roche) and 10 mg/ml collagenase D (Roche). Brown fat tissue was dissected, washed with PBS, minced and digested for 45 min at 37° C. in PBS containing 1.3 mM CaCl2, 123 mM NaCl, 5 mM KCl, 5.0 mM glucose, 100 mM HEPES, 4% BSA and 1.5 mg/ml collagenase B (Roche). Digested tissue was filtered through a 100-μm cell strainer and centrifuged at 600 g for 10 min. […] For adenoviral overexpression of Slit2-FL, Slit2-N, Slit2-C, LacZ or Cre, virus was added at day 2 of differentiation at a titer of 10^8 particles/well and cells were analyzed at day 6-7. […]
(§2) RNA was extracted from cultured cells or frozen tissue samples using TRIzol®, purified with QIAGEN RNeasy® minicolumns. Normalized RNA was reversed transcribed using a high-capacity cDNA reverse transcription lot (Applied Biosystems) and cDNA was analyzed by qRT-CPR. Relative mRNA levels were calculated using the comparative CT method and normalized to cyclophilin […]. […]

primary inguinal cells = test: Thermogenic gene expression in primary inguinal cells with adenoviral overexpression; format: cell-based, Mus musculus
Method: as §1, §2

high fat diet-fed mice = test: Whole body energy expenditure (CLAMS) and tissue weights; format: in vivo, Mus musculus
Method: (§3) Glucose tolerance tests were performed on mice 7 days post-injection with adenovirus. […] Animals were fasted overnight and then received intraperitoneal glucose at […]. Energy expenditure was analyzed using a Comprehensive Lab Animal Monitoring System (Columbus Instruments). Cold exposure and thermoneutrality experiments were performed in Balb/c mice at 4° C. or 30° C., respectively. Total levels of cholesterol, free fatty acids, triglycerides and insulin were measured at the Core Facility at Joslin Diabetes Center.

[1] = Plasma cholesterol, triglycerides and insulin; format: in vivo, Mus musculus; settings: 7 days post-injection
Method: as §3

diet-induced obese mice = test: Intraperitoneal glucose tolerance test; format: in vivo, Mus musculus
Method: as §3

PKA signaling pathway = test: Western blotting of PKA and related signaling in primary inguinal cells; format: cell-based, Mus musculus; settings: for PKA signaling after treatment with conditioned media: serum-free conditioned media from expressing cells, acute treatment (30 min), FIG. 10G
Method: Inguinal and brown stromal-vascular fractions were obtained from 6 weeks old male or newborn mice (postnatal days 5-10) for white and brown fat cultures, respectively. Inguinal fat tissue was dissected and washed with PBS, minced and digested for 45 min at 37° C. in PBS containing 10 mM CaCl2), 2.4 U/ml dispase II (Roche) and 10 mg/ml collagenase D (Roche). Brown fat tissue was dissected, washed with PBS, minced and digested for 45 min at 37° C. in PBS containing 1.3 mM CaCl2, 123 mM NaCl, 5 mM KCl, 5.0 mM glucose, 100 mM HEPES, 4% BSA and 1.5 mg/ml collagenase B (Roche). Digested tissue was filtered through a 100-μm cell strainer and centrifuged at 600 g for 10 min. Pelleted inguinal stromal-vascular cells were grown to confluence and induced to differentiate by an adipogenic cocktail containing 0.02 μM insulin, 1 μM rosiglitazone, 5 μM dexamethasone, 0.5 μM isobuthylmethylxanthine. For differentiation of brown fat cells, 1 nM T3 and 125 μM indomethacin were also added to the adipogenic cocktail. Two days after induction, cells were maintained in adipocyte culture medium containing 0.02 μM insulin and 1 μM rosiglitazone. Where indicated, cells were treated with forskolin (10 μM), norepinephrine (100 nM) for 4 h or with recombinant proteins (1 μg/ml, R&D systems) for 24 h or for the indicated times. For adenoviral overexpression of Slit2-FL, Slit2-N, Slit2-C, LacZ or Cre, virus was added at day 2 of differentiation at a titer of 10^8 particles/well and cells were analyzed at day 6-7. Where indicated, cells were treated with the drugs Erlotinib (SelleckChem), Lapatinib (Santa Cruz), PD0325901 (Santa Cruz), Propranolol (SelleckChem), H89 dihydrochloride (Santa Cruz), SQ-22536 (Santa Cruz) for indicated time points and concentrations.
For Western blotting, homogenized tissues, whole cell lysates, or concentrated serum free conditioned medium were lysed in RIPA buffer containing protease inhibitor cocktail (Thermo Scientific) and phosphatase inhibitor cocktail (Thermo Scientific), separated by SDS-PAGE and transferred to Immobilon-P® membranes (Millipore). For Western blotting of plasma samples, 1 μl of plasma was prepared containing 2× sample buffer (Invitrogen) with reducing agent, boiled and analyzed using Western blot against V5, FLAG, or the indicated antibody. V5-antibody was from Life Technologies and anti-Flag M2-HRP (A8592) from Sigma Aldrich. Anti-Slit2 antibody used was from Abcam (Abcam ab134166). Phospho-PKA Substrate, phospho-PKC Substrate, phospho-ERK1/2, total ERK, phospho-AKT, total AKT, phospho-AMPK, total AMPK, phospho-ATGL, ATGL, phospho-EGFR and EGFR were from Cell Signaling. Protein array was from R&D Systems (Proteome Profiler Mouse Phospho-RTK Array Kit, ARY014). Silverstain (SilverQuest™ Silver Staining Kit, LC6070) was purchased from Thermo Fisher.

[2] = 16-week high fat diet-fed mice, Slit2-C adenovirus vs LacZ
[3] = Slit2-C-transduced cells, FIG. 10B

B1: Slit2-C: ~50 kDa C-terminal cleavage fragment of Slit2 beginning at TSP (SEQ ID NO: 22); adenovirally expressed or purified FLAG-tagged protein (protein, listed as Homo sapiens)
chain: TSPCDNFDCQNGAQCIIRINEPICQCLPGYLGEKCEKLVSVNFVNKESYLQIPSAKVRPQTNITLQIATDEDSGILLYKGDKDHIAVELYRGRVRASYDTGSHPASAIYSVETINDGNFHIVELLTLDSSLSLSVDGGSPKVITNLSKQSTLNFDSPLYVGGMPGKNNVASLRQAPGQNGTSFHGCIRNLYINSELQDFRKMPMQTGILPGCEPCHKKVCAHGMCQPSSQSGFTCECEEGWMGPLCDQRTNDPCLGNKCVHGTCLPINAFSYSCKCLEGHGGVLCDEEEDLFNPCQMIKCKHGKCRLSGVGQPYCECNSGFTGDSCDREISCRGERIRDYYQKQQGYAACQTTKKVSRLECRGGCAGGQCCGPLRSKRRKYSFECTDGSSFVDEVEKVVKCGCARCAS
modifications: FLAG tag
notes: adenovirally expressed or purified FLAG-tagged protein
In the case of B1, the “thermogenic gene expression response of primary brown fat cells” value (primary brown fat cells) is reported as “responded stronger”, the “thermogenic gene expression in primary inguinal cells” value (primary inguinal cells; Slit2-C vs LacZ virus, day 7, FIG. 6A) is reported as “comparable to full-length Slit2” and the body weight (high fat diet-fed mice; [2]) is reported as “no observable difference”. For the same molecule, the food intake (high fat diet-fed mice; [2]) was “no observable difference”, the locomotor activity (high fat diet-fed mice; [2]) was “no observable difference” and the “respiratory exchange ratio (RER)” value (high fat diet-fed mice; [2]) was “no observable difference”. For the same molecule, the whole-body oxygen consumption (high fat diet-fed mice; 16-week high fat diet-fed mice, Slit2-C adenovirus vs LacZ, normalized to total body weight) was “induced”, the “mass of the brown and inguinal depots” value (high fat diet-fed mice; day 7 post-injection, FIGS. 8F, 8I) was “reduction” and the total plasma cholesterol ([1]; FIG. 9G) was “not affected”. For the same molecule, the plasma triglycerides ([1]; FIG. 9H) was “not affected”, the non-fasting insulin levels ([1]; FIG. 9I) was “not affected” and the glucose tolerance (diet-induced obese mice; diet-induced obese mice, circulating Slit2-C, day 7, FIG. 8G) was “dramatically improve”. For the same molecule, the “activation of protein kinase C (PKC) substrates and ATGL S406” value (PKA signaling pathway; FIG. 10E) was “minimal”, the “protein levels of UCP1” value (PKA signaling pathway; Slit2-C overexpression, FIGS. 10B, 10F) was “increased” and the “phosphorylation of hormone sensitive lipase (HSL S660)” value (PKA signaling pathway; [3]) was “induced”. The “total HSL” value (PKA signaling pathway; [3]) was “unaffected”, the “phosphorylation of PKA substrates” value (PKA signaling pathway; Slit2-C-transduced vs lacZ-transduced cells, FIG. 10B) was “robust phosphorylation” and the “PKA signaling after treatment with conditioned media” value (PKA signaling pathway) was “increased”. For the same molecule, the “subset of PKA substrate phosphorylations after purified protein treatment” value (PKA signaling pathway; time-dependent and dose-dependent, FIGS. 10M, 11F) was “increased”.

B2: Slit2: Slit family secreted extracellular matrix protein, full length ~180 kDa; used as commercial recombinant protein or adenovirally expressed (protein)
chain: QACPAQCSCSGSTVDCHGLALRSVPRNIPRNTERLDLNGNNITRITKIDFAGLRHLRVLQLMENRISTIERGAFQDLKELERLRLNRNNLQLFPELLFLGTAKLYRLDLSENQIQAIPRKAFRGAVDIKNLQLDYNQISCIEDGAFRALRDLEVLTLNNNNITRLSVASFNHMPKLRTFRLHSNNLYCDCHLAWLSDWLRQRPRVGLYTQCMGPSHLRGHNVAEVQKREFVCSGHQSFMAPSCSVLHCPAACTCSNNIVDCRGKGLTEIPTNLPETITEIRLEQNSIRVIPPGAFSPYKKLRRLDLSNNQISELAPDAFQGLRSLNSLVLYGNKITELPKSLFEGLFSLQLLLLNANKINCLRVDAFQDLHNLNLLSLYDNKLQTVAKGTFSALRAIQTMHLAQNPFICDCHLKWLADYLHTNPIETSGARCTSPRRLANKRIGQIKSKKFRCSGTEDYRSKLSGDCFADLACPEKCRCEGTTVDCSNQRLNKIPDHIPQYTAELRLNNNEFTVLEATGIFKKLPQLRKINFSNNKITDIEEGAFEGASGVNEILLTSNRLENVQHKMFKGLESLKTLMLRSNRISCVGNDSFIGLGSVRLLSLYDNQITTVAPGAFDSLHSLSTLNLLANPFNCNCHLAWLGEWLRRKRIVTGNPRCQKPYFLKEIPIQDVAIQDFTCDDGNDDNSCSPLSRCPSECTCLDTVVRCSNKGLKVLPKGIPKDVTELYLDGNQFTLVPKELSNYKHLTLIDLSNNRISTLSNQSFSNMTQLLTLILSYNRLRCIPPRTFDGLKSLRLLSLHGNDISVVPEGAFNDLSALSHLAIGANPLYCDCNMQWLSDWVKSEYKEPGIARCAGPGEMADKLLLTTPSKKFTCQGPVDITIQAKCNPCLSNPCKNDGTCNNDPVDFYRCTCPYGFKGQDCDVPIHACISNPCKHGGTCHLKEGENAGFWCTCADGFEGENCEVNIDDCEDNDCENNSTCVDGINNYTCLCPPEYTGELCEEKLDFCAQDLNPCQHDSKCILTPKGFKCDCTPGYIGEHCDIDFDDCQDNKCKNGAHCTDAVNGYTCVCPEGYSGLFCEFSPPMVLPRTSPCDNFDCQNGAQCIIRINEPICQCLPGYLGEKCEKLVSVNFVNKESYLQIPSAKVRPQTNITLQIATDEDSGILLYKGDKDHIAVELYRGRVRASYDTGSHPASAIYSVETINDGNFHIVELLTLDSSLSLSVDGGSPKVITNLSKQSTLNFDSPLYVGGMPGKNNVASLRQAPGQNGTSFHGCIRNLYINSELQDFRKMPMQTGILPGCEPCHKKVCAHGMCQPSSQSGFTCECEEGWMGPLCDQRTNDPCLGNKCVHGTCLPINAFSYSCKCLEGHGGVLCDEEEDLFNPCQMIKCKHGKCRLSGVGQPYCECNSGFTGDSCDREISCRGERIRDYYQKQQGYAACQTTKKVSRLECRGGCAGGQCCGPLRSKRRKYSFECTDGSSFVDEVEKVVKCGCARCAS
For B2, the “increase in Ucp1 mRNA” value (primary inguinal cells; adenovirus on day 2 of differentiation, analyzed day 7, vs lacZ, FIG. 3D) was 8 fold, the “energy expenditure, compared with Slit2-C experiments” value (high fat diet-fed mice; full-length Slit2 adenovirus, FIGS. 9A-9E) was “comparable results” and the “glucose tolerance, compared with Slit2-C experiments” value (diet-induced obese mice; full-length Slit2 adenovirus, FIG. 9F) was “comparable results”. The “PKA signaling after treatment with conditioned media” value (PKA signaling pathway) was “increased”.
